Test results from paper PMC13397619.

B1: NLV2 TCR alpha chain (CDR3α only) (parent)
chain: AGPMKTSYDKVI
B2: NLV2 TCR alpha chain (CDR3α only) (parent)
chain: AGPMKTSYDKVI
partner: NLVGMVATV

What was measured:
[1] = variants of: B1; experiment: T-Switch: Jurkat TCRβ−/− cells expressing a CDR3 saturation-mutagenesis library, stained with two peptide-HLA-A*02:01 tetramers (original and novel peptide) plus anti-CD3, FACS-sorted into four gates, gDNA sequenced; conditions: tetramers 1 µg/mL, 30 min on ice, SP, DP and SW gates expanded about 10 days between rounds ('two to three rounds of selection' in the Methods), unresolved parent, parent is a CDR3 fragment, scale: fold enrichment, numbering: sequential-on-construct, sequence starts at 1
[2] = variants of: B2; experiment: as above; conditions: with HLA-A*02:01 with peptide … (NLV 2-2, the original bait), tetramers 1 µg/mL, 30 min on ice, DP and SW gates expanded about 10 days between rounds ('two to three rounds of selection' in the Methods), gate SP: higher = more of the variant in the gate that binds the original peptide and not the novel one = retained original binding. Fold enrichment of the CDR3 variant in one FACS gate of a two-tetra, unresolved parent, parent is a CDR3 fragment, scale: fold enrichment, numbering: sequential-on-construct, sequence …
[3] = with both tetramers (double-negative gate, binds neither): HLA-A*02:01 with … and with …, gate DN: OPPOSITE: higher = more of the variant in the gate that binds neither peptide = LESS binding (or no expression; inferred). Fold enrichment of the CDR3 variant in one FACS gate of a two-tetram
[4] = with both tetramers (double-positive gate): HLA-A*02:01 with … and with …, gate DP: higher = more of the variant in the gate that binds both peptides. Fold enrichment of the CDR3 variant in one FACS gate of a two-tetramer stain. SP/DP/SW gates were expanded and re-sorted bef

| Variant | enrichment [1, 3] | enrichment [1, 4] | enrichment [2] |
| --- | --- | --- | --- |
| […] (CDR3 as printed); K5C derived by comparing it with the table's wild-type CDR3 AGPMKTSYDKVI | 1.03 | 0 |  |
| […] (CDR3 as printed); S7H derived by comparing it with the table's wild-type CDR3 AGPMKTSYDKVI | 0.722 | 0 |  |
| […] (CDR3 as printed); K10L derived by comparing it with the table's wild-type CDR3 AGPMKTSYDKVI | 1.05 | 0 |  |
| […] (CDR3 as printed); I12E derived by comparing it with the table's wild-type CDR3 AGPMKTSYDKVI | 1.18 | 0 |  |
| […] (CDR3 as printed); P3V derived by comparing it with the table's wild-type CDR3 AGPMKTSYDKVI | 1.02 | 0 |  |
| […] (CDR3 as printed); I12P derived by comparing it with the table's wild-type CDR3 AGPMKTSYDKVI | 1.18 | 0 |  |
| […] (CDR3 as printed); K5P derived by comparing it with the table's wild-type CDR3 AGPMKTSYDKVI | 0.356 | 0 |  |
| […] (CDR3 as printed); V11K derived by comparing it with the table's wild-type CDR3 AGPMKTSYDKVI | 1.49 | 0 |  |
| […] (CDR3 as printed); S7V derived by comparing it with the table's wild-type CDR3 AGPMKTSYDKVI | 0.928 | 0 |  |
| […] (CDR3 as printed); A1T derived by comparing it with the table's wild-type CDR3 AGPMKTSYDKVI | 0.871 | 0 |  |
| […] (CDR3 as printed); T6P derived by comparing it with the table's wild-type CDR3 AGPMKTSYDKVI | 0.299 | 0 |  |
| […] (CDR3 as printed); K5T derived by comparing it with the table's wild-type CDR3 AGPMKTSYDKVI | 0.493 | 0.931 |  |
| […] (CDR3 as printed); D9C derived by comparing it with the table's wild-type CDR3 AGPMKTSYDKVI | 0.717 | 0 |  |
| […] (CDR3 as printed); D9V derived by comparing it with the table's wild-type CDR3 AGPMKTSYDKVI | 0.959 | 0 |  |
| […] (CDR3 as printed); I12L derived by comparing it with the table's wild-type CDR3 AGPMKTSYDKVI | 0.907 | 0 |  |
| […] (CDR3 as printed); M4L derived by comparing it with the table's wild-type CDR3 AGPMKTSYDKVI | 0.995 | 0 |  |
| […] (CDR3 as printed); Y8I derived by comparing it with the table's wild-type CDR3 AGPMKTSYDKVI | 1.11 | 0 |  |
| […] (CDR3 as printed); P3N derived by comparing it with the table's wild-type CDR3 AGPMKTSYDKVI | 1.07 | 0 |  |
| […] (CDR3 as printed); P3E derived by comparing it with the table's wild-type CDR3 AGPMKTSYDKVI | 1.15 | 0 |  |
| […] (CDR3 as printed); M4T derived by comparing it with the table's wild-type CDR3 AGPMKTSYDKVI | 0.518 | 0 |  |
| […] (CDR3 as printed); Y8N derived by comparing it with the table's wild-type CDR3 AGPMKTSYDKVI | 0.932 | 0 |  |
| […] (CDR3 as printed); T6A derived by comparing it with the table's wild-type CDR3 AGPMKTSYDKVI | 0.82 | 0 |  |

| Variant | enrichment [1, 3] | enrichment [1, 4] | enrichment [2] |
| --- | --- | --- | --- |
| […] (CDR3 as printed); G2T derived by comparing it with the table's wild-type CDR3 AGPMKTSYDKVI | 0.533 | 0 |  |
| […] (CDR3 as printed); P3I derived by comparing it with the table's wild-type CDR3 AGPMKTSYDKVI | 1.09 | 0 |  |
| […] (CDR3 as printed); G2D derived by comparing it with the table's wild-type CDR3 AGPMKTSYDKVI | 1.02 | 0 |  |
| […] (CDR3 as printed); K10V derived by comparing it with the table's wild-type CDR3 AGPMKTSYDKVI | 1.38 | 0 |  |
| […] (CDR3 as printed); G2C derived by comparing it with the table's wild-type CDR3 AGPMKTSYDKVI | 0.956 | 0 |  |
| […] (CDR3 as printed); Y8V derived by comparing it with the table's wild-type CDR3 AGPMKTSYDKVI | 1.48 | 0 |  |
| […] (CDR3 as printed); I12F derived by comparing it with the table's wild-type CDR3 AGPMKTSYDKVI | 1.16 | 0 |  |
| […] (CDR3 as printed); I12K derived by comparing it with the table's wild-type CDR3 AGPMKTSYDKVI | 0.703 | 0 |  |
| […] (CDR3 as printed); T6D derived by comparing it with the table's wild-type CDR3 AGPMKTSYDKVI | 1.18 | 0 |  |
| […] (CDR3 as printed); I12W derived by comparing it with the table's wild-type CDR3 AGPMKTSYDKVI | 0.924 | 0 |  |
| […] (CDR3 as printed); T6W derived by comparing it with the table's wild-type CDR3 AGPMKTSYDKVI | 1.07 | 0 |  |
| […] (CDR3 as printed); G2E derived by comparing it with the table's wild-type CDR3 AGPMKTSYDKVI | 0.844 | 0 |  |
| […] (CDR3 as printed); V11Q derived by comparing it with the table's wild-type CDR3 AGPMKTSYDKVI | 1.35 | 0 |  |
| […] (CDR3 as printed); Y8F derived by comparing it with the table's wild-type CDR3 AGPMKTSYDKVI | 1.1 | 0 |  |
| […] (CDR3 as printed); S7P derived by comparing it with the table's wild-type CDR3 AGPMKTSYDKVI | 0.995 | 0 |  |
| […] (CDR3 as printed); D9A derived by comparing it with the table's wild-type CDR3 AGPMKTSYDKVI | 1.01 | 0 |  |
| […] (CDR3 as printed); G2N derived by comparing it with the table's wild-type CDR3 AGPMKTSYDKVI | 0.848 | 0 |  |
| […] (CDR3 as printed); S7K derived by comparing it with the table's wild-type CDR3 AGPMKTSYDKVI | 1.32 | 0 |  |
| […] (CDR3 as printed); K10S derived by comparing it with the table's wild-type CDR3 AGPMKTSYDKVI | 1.01 | 0 |  |
| […] (CDR3 as printed); M4A derived by comparing it with the table's wild-type CDR3 AGPMKTSYDKVI | 0.697 | 0 |  |
| […] (CDR3 as printed); D9P derived by comparing it with the table's wild-type CDR3 AGPMKTSYDKVI | 1.22 | 0 |  |
| […] (CDR3 as printed); P3W derived by comparing it with the table's wild-type CDR3 AGPMKTSYDKVI | 0.887 | 0 |  |

| Variant | enrichment [1, 3] | enrichment [1, 4] | enrichment [2] |
| --- | --- | --- | --- |
| […] (CDR3 as printed); V11T derived by comparing it with the table's wild-type CDR3 AGPMKTSYDKVI | 1.12 | 0 |  |
| […] (CDR3 as printed); K10T derived by comparing it with the table's wild-type CDR3 AGPMKTSYDKVI | 1.24 | 0 |  |
| […] (CDR3 as printed); G2R derived by comparing it with the table's wild-type CDR3 AGPMKTSYDKVI | 0.977 | 0 |  |
| […] (CDR3 as printed); G2S derived by comparing it with the table's wild-type CDR3 AGPMKTSYDKVI | 1.02 | 0 |  |
| […] (CDR3 as printed); Y8E derived by comparing it with the table's wild-type CDR3 AGPMKTSYDKVI | 0.485 | 3.54 |  |
| […] (CDR3 as printed); D9S derived by comparing it with the table's wild-type CDR3 AGPMKTSYDKVI | 1.04 | 0 |  |
| […] (CDR3 as printed); M4P derived by comparing it with the table's wild-type CDR3 AGPMKTSYDKVI | 1 | 0 |  |
| […] (CDR3 as printed); A1C derived by comparing it with the table's wild-type CDR3 AGPMKTSYDKVI |  |  | 0.571 |
| […] (CDR3 as printed); A1D derived by comparing it with the table's wild-type CDR3 AGPMKTSYDKVI |  |  | 0 |
| […] (CDR3 as printed); A1E derived by comparing it with the table's wild-type CDR3 AGPMKTSYDKVI |  |  | 0.186 |
| […] (CDR3 as printed); A1F derived by comparing it with the table's wild-type CDR3 AGPMKTSYDKVI |  |  | 2.07 |
| […] (CDR3 as printed); A1G derived by comparing it with the table's wild-type CDR3 AGPMKTSYDKVI |  |  | 0 |
| […] (CDR3 as printed); A1H derived by comparing it with the table's wild-type CDR3 AGPMKTSYDKVI |  |  | 1.05 |
| […] (CDR3 as printed); A1I derived by comparing it with the table's wild-type CDR3 AGPMKTSYDKVI |  |  | 0.473 |
| […] (CDR3 as printed); A1K derived by comparing it with the table's wild-type CDR3 AGPMKTSYDKVI |  |  | 0 |
| […] (CDR3 as printed); A1L derived by comparing it with the table's wild-type CDR3 AGPMKTSYDKVI |  |  | 0 |
| […] (CDR3 as printed); A1M derived by comparing it with the table's wild-type CDR3 AGPMKTSYDKVI |  |  | 0.103 |
| […] (CDR3 as printed); A1N derived by comparing it with the table's wild-type CDR3 AGPMKTSYDKVI |  |  | 0.476 |
| […] (CDR3 as printed); A1P derived by comparing it with the table's wild-type CDR3 AGPMKTSYDKVI |  |  | 2.46 |
| […] (CDR3 as printed); A1Q derived by comparing it with the table's wild-type CDR3 AGPMKTSYDKVI |  |  | 0 |
